{"source": "paper doi:10.1101/2023.07.31.551325", "about": "(bioRxiv, 2023)", "proteins": {"B1": {"name": "recombinant full-length Plasmodium vivax Sub1 (PvS1FL) (complex)", "chain 1": "GDILPNEGKKEKDDVHKIISELRFLQKVETILESSNMSVSDVEADANAYNPDRDAPKEELQKLQDQQETPSKQPNNLRNSPQKRAEKKESPGKNKKSLRLIVSENHATSPSFFEESLLQEDVVSFIQSKGKLSNLKNLKSMIIDLNSDMTDEELAEYISLLERKGALIESDKLVGAD", "chain 2": "DVSLASVKDAVRRGESSVNWGKLRSTMLEVPSGESPPSHAASSGSPFDDDDDLLSEAALHREEAHLAGSKTTKGYKFNDEYRNLQWGLDLARLDETQDLINANRVSVTKICVIDSGIDYNHPDLRNNIDVNVKELHGRKGVDDDSNGVVDDVYGANFVNNSGDPMDDNYHGTHVSGIISAVGNNGIGIVGVDGHSKLVICKALDQHKLGRLGDMFKCIDYCISRQAHMINGSFSFDEYSNIFNASVEHLRSLGILFFVSASNCAHDKLSKPDIAKCDLAVNHRYPPILSKTHNNVIAVANLKRDLDESYSLSVNSFYSNIYCQLAAPGTNIYSTTPMNNYRKLNGTSMASPHVAAIASIVRSINPNLTYLQIVEILRNAIVKLPSLTERVSWGGYVDILRAVNLAIDSKAAPYIKSHSWFRWKQGSRR"}}, "target": "the molecule itself", "test": "AUC", "data": [{"protein": "B1", "values": [{"measurement": "stoichiometry N", "result": 2}]}]}
